Measured values published in patent US20250206841A1 (ADEPT THERAPEUTICS, published 2025).

Assays:
rat Trop-2 = molecular target: T1, rat Trop-2 (rat, UniProt Q6P9Z6 25-270, limits assumed); test: ELISA, similar to Table 24
T1 sequence (looked up): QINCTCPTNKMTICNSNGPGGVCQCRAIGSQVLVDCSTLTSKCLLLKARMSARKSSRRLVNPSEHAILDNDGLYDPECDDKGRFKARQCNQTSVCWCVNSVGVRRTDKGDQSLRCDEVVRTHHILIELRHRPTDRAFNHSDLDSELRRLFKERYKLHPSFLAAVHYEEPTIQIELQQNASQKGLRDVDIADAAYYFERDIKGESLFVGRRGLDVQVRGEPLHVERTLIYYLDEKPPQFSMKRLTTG
Description: Purified antibodies were tested by ELISA to confirm their binding and affinity against human and cynomolgus Trop-2-His protein. Briefly, 96-well Maxisorp plates (Nunc) were coated with 100 μl/well of 0.5 μg/ml human (Kactus Cat #TRP-HM121, or Sino Biological, Cat #10428-HO8H) or cynomolgus Trop-2 protein (Kactus Cat #TRP-CM121, or Sino Biological, Cat #90893-CO8H) diluted in 1×PBS (GIBCO) overnight at 4° C. Plates were washed four times with 300 μl/well washing buffer (1×PBST, diluted from 20×PBST (Thermo Scientific) with distilled water)) and then blocked with 300 μl/well of blocking buffer (1×PBST/3% BSA (BSA, Sigma)) for 2 hours at RT on plate shaker at 100 rpm. Plates were washed and added with 100 μl/well of testing antibodies, which were serial diluted with assay buffer (PBST/1% BSA). The antibodies were incubated at room temperature for 2 hours on plate shaker at 100 rpm. Plates were washed. One hundred microliters (100 μl) of 1:10,000 diluted horseradish peroxidase (HRP) conjugated anti-hIgG antibody (Jackson Immuno Research) was added into each well and incubated at room temperature for 1 hour on plate shaker at 100 rpm. Plates were washed and added with 100 μl/well TMB substrate for color development in dark at room temperature for up to 10 minutes. After addition of 50 μl/well of stop solution (1N H₂SO₄), plates were read at 450 nm on a plate reader (SpectraMax M5). EC₅₀ values were calculated using Graphpad Prism. Sacituzumab govitecan, was used as positive control. Anti-HEL.hIgG1 was used as isotype control.
Similar assays were performed to test whether the exemplary antibodies of the present disclosure bind to human Trop-1 (EpCAM) or mouse Trop-2 (Kactus, Cat #TRP-MM121) or rat Trop-2 (kactus, Cat #TRP_RM121). No binding of the exemplary antibodies of the present disclosure to human Trop-1 (EpCAM) or mouse or rat Trop-2 has been detected.

[1] = molecular target: T2, human Trop-2 expressed on cell surface (human, UniProt P09758 27-323); test: cell-based or functional assay
T2 sequence (looked up): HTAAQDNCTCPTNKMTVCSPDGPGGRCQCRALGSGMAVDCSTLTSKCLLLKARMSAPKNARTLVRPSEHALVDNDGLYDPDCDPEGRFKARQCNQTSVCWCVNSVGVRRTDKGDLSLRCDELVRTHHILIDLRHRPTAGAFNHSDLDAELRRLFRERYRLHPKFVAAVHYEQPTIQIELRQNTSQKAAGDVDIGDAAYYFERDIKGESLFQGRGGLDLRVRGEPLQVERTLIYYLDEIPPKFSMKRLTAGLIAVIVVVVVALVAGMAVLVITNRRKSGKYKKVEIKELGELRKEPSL

[2] = molecular target: T2, human Trop-2 expressed on cell surface; test: cell-based or functional assay; remark: listed apart in the source
human Trop-2-His protein = molecular target: T3, human Trop-2-His protein (human, UniProt P09758 27-274); test: ELISA, coated Trop-2 protein
T3 construct: extracellular domain; Assay paragraphs say only 'Trop-2-His'; also called hTrop-2; Kactus Cat #TRP-HM121; not shown: His tag
T3 sequence (looked up): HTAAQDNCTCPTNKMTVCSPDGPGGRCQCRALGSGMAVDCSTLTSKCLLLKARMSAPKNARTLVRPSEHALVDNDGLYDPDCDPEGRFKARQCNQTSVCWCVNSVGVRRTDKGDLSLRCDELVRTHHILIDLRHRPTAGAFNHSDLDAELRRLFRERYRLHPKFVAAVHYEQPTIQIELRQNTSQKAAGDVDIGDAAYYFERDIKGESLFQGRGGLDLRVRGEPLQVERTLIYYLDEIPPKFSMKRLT
Method in brief: (§1)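 Purified antibodies were checked for binding to human or cynomolgus Trop-2-His protein by ELISA. Maxisorp plates were coated overnight at 4° C with 0.5 μg/ml protein, blocked with PBST/3% BSA, and incubated with serially diluted antibodies. Binding was detected with HRP-conjugated anti-hIgG and TMB, read at 450 nm, and EC₅₀ values were calculated in Graphpad Prism.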

[3] = molecular target: T4, cynomolgus Trop-2-His protein (cynomolgus, UniProt P09758 27-274 (human entry)); test: ELISA, coated Trop-2 protein
T4 construct: also called cynmolgus Trop-His; Kactus Cat #TRP-CM121; not shown: His tag
T4 chain: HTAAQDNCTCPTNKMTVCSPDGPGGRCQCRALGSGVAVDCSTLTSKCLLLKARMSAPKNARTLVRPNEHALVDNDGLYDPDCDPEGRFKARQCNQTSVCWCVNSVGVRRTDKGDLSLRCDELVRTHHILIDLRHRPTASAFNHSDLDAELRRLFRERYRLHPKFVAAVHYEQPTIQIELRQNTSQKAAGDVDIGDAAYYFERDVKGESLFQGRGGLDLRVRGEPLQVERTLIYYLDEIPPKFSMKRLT
Method in brief: as §1

[4] = molecular target: T2, human Trop-2 expressed on cell surface; test: flow cytometry, MDA-MB-231-GFP cells
Method in brief: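 Cells at 10⁶/ml in DPBS/1% FBS were incubated on ice for 1 h with antibodies in 1:3 serial dilutions from 15 μg/mL. Detection used PE anti-human Fc (1:400, 30 min on ice) with 7-AAD viability staining, read by flow cytometry. EC₅₀ from binding curves; anti-HEL hIgG1 isotype control.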

B1: 66A1 (antibody, V domains shown)
VH: QEQLKESGGGLVQPGGSLKLSCKASGFDFNNYGVSWVRQAPGKGLEWIAYIYPAFHNTYYASWVNGRFTISSHNAQNTLYLQLNSLTAADTATYFCARDAGGTDYAYNLWGPGTLVTVSS
VL: DVVMTQTPASVEAAVGGTVSINCQASEDIESYLAWYQQKPGQPPKLLIYKASTLASGVSSRFKGSGSGKQFTLTISGVECADAATYYCQQVLTIGNVDNPFGGGSEVVVK
notes: Rabbit-derived clone; LEM construct: VH + rabbit IgG CH1 + human IgG1 CH2-CH3
Rat Trop-2
  binding result: no binding
[1]
  EC50 of ADCC (NFAT-CD16 reporter), MCF-7: 0.22 nM
  EC50 of ADCC (NFAT-CD16 reporter), MDA-MB-231: 0.06 nM
[2]
  Internalization %, MDA-MB-231, 0.25 µg/ml, 2 h: 45%
  Internalization %, MDA-MB-231, 0.25 µg/ml, 4 h: 51%
  Internalization %, MDA-MB-231, 0.5 µg/ml, 2 h: 46%
  Internalization %, MDA-MB-231, 0.5 µg/ml, 4 h: 50%
  Internalization %, MDA-MB-231, 1 µg/ml, 2 h: 39%
  Internalization %, MDA-MB-231, 1 µg/ml, 4 h: 49%
  Internalization %, MDA-MB-231, 2 µg/ml, 2 h: 36%
  Internalization %, MDA-MB-231, 2 µg/ml, 4 h: 43%
Human Trop-2-His protein
  EC50: 0.013 nM
[3]
  EC50: 0.014 nM
[4]
  EC50: 0.01 nM
